Target: N-terminal Flag tagged human FOXO1A (human, UniProt Q12778 1-655)
Test: cell-based or functional assay

Sequence of N-terminal Flag tagged human FOXO1A (Q12778 whole entry): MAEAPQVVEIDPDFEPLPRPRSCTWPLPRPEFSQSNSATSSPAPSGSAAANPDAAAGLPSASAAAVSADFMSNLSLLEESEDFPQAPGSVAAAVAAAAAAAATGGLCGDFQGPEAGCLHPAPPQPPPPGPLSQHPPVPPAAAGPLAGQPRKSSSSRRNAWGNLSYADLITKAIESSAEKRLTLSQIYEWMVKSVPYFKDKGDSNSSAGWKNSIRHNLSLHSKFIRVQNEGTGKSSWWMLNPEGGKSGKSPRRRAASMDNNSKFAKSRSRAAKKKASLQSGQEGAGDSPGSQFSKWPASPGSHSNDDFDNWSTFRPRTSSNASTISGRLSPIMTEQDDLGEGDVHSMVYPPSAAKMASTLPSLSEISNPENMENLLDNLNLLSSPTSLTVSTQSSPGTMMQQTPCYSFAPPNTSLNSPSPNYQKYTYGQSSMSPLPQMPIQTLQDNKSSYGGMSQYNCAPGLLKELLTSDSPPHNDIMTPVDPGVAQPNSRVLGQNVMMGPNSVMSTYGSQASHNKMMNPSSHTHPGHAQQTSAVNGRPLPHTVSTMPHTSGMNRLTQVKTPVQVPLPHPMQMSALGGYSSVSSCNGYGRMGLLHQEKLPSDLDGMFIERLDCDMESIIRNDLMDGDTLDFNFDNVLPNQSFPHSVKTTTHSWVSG

- luciferase expression from the dPRL-332/luc3 decidual PRL enhancer reporter in HeLa cells cotransfected with HoxA-11 and FOXO1A, fold change relative to empty expression vector: > 3 fold
B1: HoxA11-V5/His fusion protein (natural protein)
chain: not shown

From PMC2731163, “HoxA-11 and FOXO1A Cooperate to Regulate Decidual Prolactin Expression: Towards Inferring the Core Transcriptional Regulators of Decidual Genes” (PLoS ONE, 2009)
